Experimental data from paper PMC12098294.

Assays:
[1] = target: CD19/NKG2DL tandem CAR with a short hinge (12 amino acids) derived from CD8α (UniProt P26718); experiment: flow cytometry on cells; CAR-transduced primary T-cells incubated with rhMICA-Avi (detected with Alexa Fluor 647 streptavidin) and/or rhCD19-Fc (detected with anti-human IgG-Fc antibody); MFI read in a subpopulation expressing the CD34 marker at similar level; one ligand alone or both together
[2] = target: CD19/NKG2DL tandem CAR with a short hinge (12 amino acids) derived from IgG4 (UniProt P26718); experiment: as above

- decrease of MICA binding against the NKG2DL single-targeting CAR [1]: 30%
- decrease of MICA binding against the NKG2DL single-targeting CAR [2]: 30%
B1: recombinant human Biotinylated Human MICA Protein, His,Avitag (ligand)
chain: EPHSLRYNLTVLSWDGSVQSGFLTEVHLDGQPFLRCDRQKCRAKPQGQWAEDVLGNKTWDRETRDLTGNGKDLRMTLAHIKDQKEGLHSLQEIRVCEIHEDNSTRSSQHFYYDGELFLSQNLETKEWTMPQSSRAQTLAMNVRNFLKEDAMKTKTHYHAMHADCLQELRRYLKSGVVLRRTVPPMVNVTRSEASEGNITVTCRASGFYPWNITLSWRQDGVSLSHDTQQWGDVLPDGNGTYQTWVATRICQGEEQRFTCYMEHSGNHSTHPVPSGKVLVLQSHW
modifications: biotin (biotinylated protein)
